± gives the standard deviation of the averaged measurements.
system: Saccharomyces cerevisiae; experiment: protein stability index of tFT-peptide fusion (C-terminal peptide) (PSI (0-1 scale)); higher = more stable (slower turnover); conditions: genetic background: wild type; temperature: 30 C
Procedure: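 Multiplexed protein stability (MPS) profiling in S. cerevisiae. Random 12-aa peptides (tFT-X12 library) are fused to the C-terminus of a sfGFP-mCherry tandem fluorescent timer, after mCherry and a GGGS linker. Cells are FACS-sorted into 8 mCherry/sfGFP bins and deep-sequenced. The protein stability index (PSI) is the read-weighted bin average, scaled from 0 (unstable) to 1 (stable). Only peptides with >10 reads are reported; cells were grown at 30 °C in SC-His with glucose.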
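Further: PSI is a weighted mean of sequencing reads over stability bins, variants kept only with over 10 reads, mCherry proximal and sfGFP distal, peptide attached via GGGS linker.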

Sequence | protein stability index
EETGWGVVWVVR | 0.703 ± 0.037
EFFSFPLTPYAL | 0.818 ± 0.0035
EFKGRHEETTKS | 0.72 ± 0.08
EFPSGCSSVIVA | 0.655 ± 0.049
EFVGKDRWVGGL | 0.699 ± 0.053
EFVGSCPLCNTF | 0.622 ± 0.015
EGAGGVEGAAWG | 0.7 ± 0.018
EGASLRWARLRI | 0.679 ± 0.037
EGDGVGCWWELW | 0.683 ± 0.033
EGDRWAGEVVRG | 0.705 ± 0.011
EGEVAGRWCGRG | 0.69 ± 0.013
EGGIKGKKVRTW | 0.66 ± 0.0087
EGGKRGGTPITK | 0.654 ± 0.025
EGGRRHSVGEQE | 0.679 ± 0.01
EGGWRYNRNGPN | 0.687 ± 0.025
EGHSPVQNVIEQ | 0.698 ± 0.013
EGHTRLPSPSPS | 0.677 ± 0.009
EGIYLTVGTVDQ | 0.707 ± 0.049
EGRGKGKKKKTH | 0.7 ± 0.036
EGRMEAGVEGNS | 0.657 ± 0.053
EGRPEERETTGH | 0.587 ± 0.057
EGTASGSSVRLE | 0.693 ± 0.049
EGYEATYLGVFV | 0.706 ± 0.031
EGYTPETPCYQK | 0.688 ± 0.029
EHGEFLEGARGV | 0.645 ± 0.0075

Sequence | protein stability index
EHKRQRPVTRLP | 0.672 ± 0.016
EIGSWKTISILV | 0.487 ± 0.024
EIKEEKEHRNQE | 0.696 ± 0.052
EINSIEQESGTT | 0.677 ± 0.019
EIRGGDMGEWRE | 0.715 ± 0.027
EISPQGAKWQEG | 0.655 ± 0.048
EKCDYVIPVGLL | 0.702 ± 0.035
EKCHVTVVNEMR | 0.643 ± 0.074
EKEWKRGTRKLD | 0.702 ± 0.085
EKIRSNIIKLEE | 0.64 ± 0.097
EKKEINKIKNQN | 0.662 ± 0.028
EKKEVSLVKKGR | 0.695 ± 0.039
EKKHNKKEVIKK | 0.699 ± 0.009
EKKKKTIRKRMT | 0.6691 ± 0.0018
EKKKQKDKKKKN | 0.705 ± 0.0078
EKKRRKKGEKRR | 0.712 ± 0.17
EKLEGRKIIKKK | 0.6927 ± 0.006
EKNEREEAESGG | 0.714 ± 0.038
EKNKKDKNIIIG | 0.681 ± 0.04
EKNKKKIERSTM | 0.684 ± 0.012
EKRRRRRQEAER | 0.608 ± 0.03
EKSPDYVFRWFR | 0.745 ± 0.044
EKTNQPFHTLHA | 0.673 ± 0.011
EKVGAGVRLAWN | 0.695 ± 0.003
ELCPFLPLFLTY | 0.551 ± 0.03

Sequence | protein stability index
ELEIRSLCPDVV | 0.694 ± 0.024
ELVYVFLGNLPP | 0.632 ± 0.034
ELWRAGEVRGGK | 0.713 ± 0.035
EMGGLKACRGVG | 0.56565 ± 0.00029
EMNKGKREKKGE | 0.684 ± 0.084
EMYEKLKSYIVK | 0.685 ± 0.013
ENDKPITRKETQ | 0.605 ± 0.07
ENPVVRSGAVGS | 0.698 ± 0.031
EPAWVNDQKERS | 0.832 ± 0.029
EPGFWGGRGGRA | 0.661 ± 0.01
EPLGSGLQCTAG | 0.731 ± 0.005
EPRPTPLSTPRH | 0.671 ± 0.094
EQRLQRATELGR | 0.52028 ± 0.00016
EQRQVQVTWRQD | 0.66 ± 0.055
EQTIGDRVPGKG | 0.658 ± 0.051
EQVRVDETTGRR | 0.722 ± 0.025
ERARSRGGGGCV | 0.632 ± 0.046
ERCQGGSGVLIR | 0.638 ± 0.1
ERDDRSFEWPRQ | 0.69 ± 0.025
ERGKGSRVGGST | 0.643 ± 0.1
ERGREVVSRGVQ | 0.724 ± 0.014
ERKESKSRKVER | 0.726 ± 0.081
ERKKIKDKIKKN | 0.702 ± 0.051
ERKQKKKTKEKY | 0.682 ± 0.026
ERKQRKREQRDR | 0.6609 ± 0.0038

Sequence | protein stability index
ERLACRFRTVVM | 0.595 ± 0.053
ERNDLGNRLSMD | 0.654 ± 0.02
ERRGAAGAGSTR | 0.744 ± 0.045
ERSRRVSNIMVL | 0.48 ± 0.095
ERSVTVKIRDLL | 0.6767 ± 0.0036
ERTSSSWPPPAV | 0.72 ± 0.09
ERVEETGREQPT | 0.754 ± 0.037
ESPTWVVLEGLG | 0.6996 ± 0.0014
ESRGLVRRLGTG | 0.693 ± 0.058
ESRGVRAGTWQG | 0.694 ± 0.05
ESSTGYSPPLPV | 0.666 ± 0.047
ETNKEDKGKKSI | 0.6577 ± 0.0051
EVCAGNFVCSLG | 0.708 ± 0.015
EVDRGSNWEGRL | 0.66 ± 0.011
EVLTSRWCGLIS | 0.744 ± 0.074
EVMAIISTRILG | 0.647 ± 0.07
EVNGNYNIVGKA | 0.652 ± 0.07
EVRDLSQFMKRY | 0.727 ± 0.0092
EVRGKSVTIFVR | 0.57 ± 0.025
EVTAQLCADKEP | 0.564 ± 0.12
EVTDSVKTEPAT | 0.6463 ± 0.0043
EVTEIAQFRDKR | 0.7 ± 0.017
EVWGGVCWRAGG | 0.735 ± 0.12
